For one assay, the target named is T1, HemKΔ80 (Leptospira biflexa, UniProt A5JUR4).
T1 construct: gene LEPBI_I1423; soluble cytoplasmic catalytic region lacking first 80 residues (periplasmic and transmembrane); N-terminal His-tag cut by TEV; E. coli Rosetta-gami(DE3)
T1 sequence (A5JUR4 81-295): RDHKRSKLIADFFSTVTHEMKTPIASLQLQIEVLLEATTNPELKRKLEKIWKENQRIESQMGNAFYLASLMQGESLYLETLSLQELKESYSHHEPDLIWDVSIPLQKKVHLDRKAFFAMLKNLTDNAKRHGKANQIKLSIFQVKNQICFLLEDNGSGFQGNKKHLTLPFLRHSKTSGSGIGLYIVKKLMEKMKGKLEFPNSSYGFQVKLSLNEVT
In words: autophosphorylation, PhosTag-SDS-PAGE. To be noted: 5 mM ATP, 10 mM MgCl2; phosphoryl transfer to HemK H98. Format: biochemical.

Assay [1] has as its target phosphorylated HemRFL (full-length HemR, phosphorylated) (Leptospira biflexa). The assay can be described thus: SEC; 600 uM HemRREC or HemRFL incubated with 5 mM acetyl phosphate, 10 mM MgCl2; dimeric phosphorylated form separated from monomeric non-phosphorylated form on Superdex 10/300 75 prep.
Assay [2] addresses phosphorylated HemRREC (receiver domain of HemR, phosphorylated) (Leptospira biflexa). The assay is described as above.

This is an account of results in PMC11426443, “Signal-sensing triggers the shutdown of HemKR, regulating heme and iron metabolism in the spirochete Leptospira biflexa” (PLOS ONE, 2024).

On to `Nc1ncnc2c1ncn2[C@@H]1O[C@H](COP(=O)(O)OP(=O)(O)OP(=O)(O)O)[C@@H](O)[C@H]1O` [ATP], for which the “autophosphorylation, PhosTag-SDS-PAGE” value on HemKΔ80 is reported as “possesses ATP-dependent autokinase activity (Fig 1A)”.
A word on the stoichiometry N: it is a count of units in the complex or per binding partner. In assay [1], “phosphorylated HemRFL (full-length HemR, phosphorylated) (natural protein)” registered a stoichiometry N of 2.
In assay [2], “phosphorylated HemRREC (receiver domain of HemR, phosphorylated) (domain or fragment)” had a stoichiometry N of 2.
